The target in one series is T1, CsMES1 V18S (Citrus sinensis, UniProt A0A067GV78, V18S).
T1 construct: gene CISIN_1g024065mg; optimized CsMES1 V18S synthetic gene in pET28a, recombinant from E. coli
T1 sequence (A0A067GV78 1-267 V18S): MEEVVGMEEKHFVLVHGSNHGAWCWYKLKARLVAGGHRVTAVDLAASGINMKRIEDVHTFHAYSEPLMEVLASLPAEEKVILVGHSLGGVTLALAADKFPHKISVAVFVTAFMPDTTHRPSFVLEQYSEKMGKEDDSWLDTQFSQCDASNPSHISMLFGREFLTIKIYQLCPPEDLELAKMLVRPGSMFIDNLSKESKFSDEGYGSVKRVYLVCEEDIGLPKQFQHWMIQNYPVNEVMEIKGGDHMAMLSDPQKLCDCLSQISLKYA
In words: biochemical. It counts as binding.

In another series the target is T2, CsMES1 V18A (Citrus sinensis, UniProt A0A067GV78, V18A).
T2 construct: gene CISIN_1g024065mg; recombinant CsMES1 (KDO79352) from pET28a in E. coli
T2 sequence (A0A067GV78 1-267 V18A): T1 sequence (A0A067GV78 1-267 V18S) with S18A
In words: biochemical. It counts as binding.

The next series concerns the target T3, CsMES1 (Citrus sinensis, UniProt A0A067GV78).
T3 construct: gene CISIN_1g024065mg; recombinant CsMES1 (KDO79352) from pET28a in E. coli
T3 sequence (A0A067GV78 1-267): T1 sequence (A0A067GV78 1-267 V18S) with S18V
In words: ITC; also esterase inhibition (IC50 […] at […] MeSA). In kind it is binding.

For series [1], the target named is Citrus sinensis salicylate methylesterase CsMES1 (recombinant, wild type) (Citrus sinensis). In words: SEC; analytical gel filtration on Superdex 75 10/300 in SEC buffer (137 mM NaCl, 10 mM Na2HPO4, 2.7 mM KCl, 2 mM KH2PO4, pH 7.5); mass estimated from standards (bovine serum albumin, ovalbumin, lysozyme).
Substrate in series [2]: COC(=O)c1ccccc1O
The series is described as follows: MeSA esterase kinetics, SA fluorescence (Km). In kind it is biochemical, Citrus sinensis. The note with it: active site.

Positions count from the first letter of the chain named. Names may count otherwise.

With `O=C(c1ccccc1)C(F)(F)F` [TriFA, 2,2,2-Trifluoroacetophenone], the Kd at CsMES1 V18S was approximately 300 nM; on CsMES1 V18A, approximately 300 nM; on CsMES1, 7100 nM. For “Citrus sinensis salicylate methylesterase CsMES1 (recombinant, wild type) (enzyme)”, in series [1], the stoichiometry N was 2.

B1: CsMES1 (Citrus sinensis) (protein)
chain: T1 sequence (A0A067GV78 1-267 V18S) with S18V
notes: recombinant CsMES1 (KDO79352) from pET28a in E. coli
Turning to B1, in series [2], the Km came to 48.9 ± 15.63 µM and the kcat came to 0.38 ± 0.06 s⁻¹.

B2: CsMES1 V18S (Citrus sinensis; V18S) (protein)
chain: T1 sequence (A0A067GV78 1-267 V18S)
notes: optimized CsMES1 V18S synthetic gene in pET28a, recombinant from E. coli
As to B2, in series [2], the Km was 16.1 ± 0.23 µM.

B3: CsMES1 V18A (Citrus sinensis; V18A) (protein)
chain: T1 sequence (A0A067GV78 1-267 V18S) with S18A
notes: as for B1
As to B3, the Km in series [2] is 11.7 ± 0.97 µM.

The record behind these values is PMC6405950, “Structure-function relationship of a citrus salicylate methylesterase and role of salicylic acid in citrus canker resistance” (Scientific Reports, 2019).
